Assays:
[1] = target: SpyCatcher-AP205 capsid virus-like particle (cVLP) (Acinetobacter phage AP205); test: covalent SpyTag-SpyCatcher coupling, SDS-PAGE densitometry; SpyTagged sE2 mixed with SpyCatcher-AP205 cVLP at molar ratio 2:1 (antigen per cVLP binding site), 36 h at 4 °C; Coomassie SDS-PAGE, densitometry (ImageQuantTL)
[2] = target: oligomeric soluble HCV E2 (sE2, Con1 isolate, genotype 1b) with C-terminal 6x His tag and SpyTag, SEC peak 2 (Hepatitis C virus, isolate Con1 (genotype 1b)) (UniProt Q9WMX2); test: SEC; analytical SEC of the purified sE2 SEC peak fractions against marker proteins of known size
[3] = target: oligomeric soluble HCV E2 (sE2, Con1 isolate, genotype 1b) with C-terminal 6x His tag and SpyTag, SEC peak 2 (Hepatitis C virus, isolate Con1 (genotype 1b)) (UniProt Q9WMX2); test: non-reducing SDS-PAGE; SEC peaks of sE2 in SDS-PAGE, Coomassie staining, with or without reducing agent (DTT)

Row | Substance | coupling efficiency [1] | stoichiometry N [2] | stoichiometry N [3]
1 | monomeric soluble HCV E2 (sE2, Con1 isolate, genotype 1b) with C-terminal 6x His tag and SpyTag, SEC peak 1 (from UniProt Q9WMX2 384-661) (domain or fragment) | 60% | – | –
2 | oligomeric soluble HCV E2 (sE2, Con1 isolate, genotype 1b) with C-terminal 6x His tag and SpyTag, SEC peak 2 (from UniProt Q9WMX2 384-661) (domain or fragment) | 60% | 4 | 2

Reference: paper PMC9665036
